Assay [1] concerns the target T1, cynomolgus monkey SIRPγ-His monomer protein (cynomolgus monkey, UniProt Q9P1W8 29-359 (human entry), limits assumed).
T1 construct: also called Cyno SIRPγ; Cyno SIRPγ-His
T1 chain: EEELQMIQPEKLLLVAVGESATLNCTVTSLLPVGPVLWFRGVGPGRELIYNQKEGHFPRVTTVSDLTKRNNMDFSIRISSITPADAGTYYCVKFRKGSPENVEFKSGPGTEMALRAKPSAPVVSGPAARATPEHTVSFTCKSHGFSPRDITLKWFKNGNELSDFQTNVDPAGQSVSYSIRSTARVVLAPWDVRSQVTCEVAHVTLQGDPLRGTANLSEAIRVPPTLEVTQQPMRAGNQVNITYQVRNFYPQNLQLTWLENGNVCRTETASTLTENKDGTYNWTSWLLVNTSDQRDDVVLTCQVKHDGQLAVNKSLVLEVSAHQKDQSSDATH
The assay is described as follows: BLI Octet, antibody on AHC, global 1:2 model. As to the method:
(§1) Antibodies were coated onto anti-human Fc capture (AHC) biosensors. SIRP-His monomer protein or bivalent SIRP protein with mouse Fc at four concentrations (200 nM, 100 nM, 50 nM, 25 nM) were exposed to the biosensor to measure on-rate kinetics of SIRP antibodies binding to SIRP protein. The biosensors were then exposed to wash buffer to measure off-rate kinetics. The resulting kinetic data were analyzed and fitted using a global 1:2 binding model.
On the technique in general: BLI is a label-free optical method that tracks binding on a fibre tip over time.

Assay [2] has as its target T2, bivalent human SIRPγ protein with mouse Fc (human, UniProt Q9P1W8 29-360).
T2 construct: also called Human SIRPγ-mFc
In words: BLI Octet, antibody on AHC, global 1:2 model. Here is the method:
as §1

The target in assay [3] is T3, human SIRPγ-His monomer protein (human, UniProt Q9P1W8 29-360).
T3 construct: also called hSIRPγ
In words: BLI Octet, antibody on AHC, global 1:2 model. As to the method:
as §1

The target of assay [4] is T4, human SIRPβ1 on CHO cells (co-transfected with DAP12) (human, UniProt O00241 30-398).
T4 construct: whole, on cells; co-transfected with DAP12; also called Human SIRPβ1 CHO
In words: flow cytometry, CHO transfectants, anti-human IgG. The procedure, abridged: (§2)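 Read-out is median fluorescence intensity for each antibody concentration, measured after a titration series is bound to stably transfected CHO cells and stained with labelled anti-human IgG. The scFv data come from myc-tagged crude PPE, also run on parental CHO-K1, where fold change below 2.0 denotes no binding.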

Assay [5] addresses T5, cynomolgus monkey SIRPα on CHO cells (cynomolgus monkey, UniProt A0A2K5VYQ9 31-507).
T5 construct: whole, on cells; also called Cyno SIRPα CHO
T5 sequence: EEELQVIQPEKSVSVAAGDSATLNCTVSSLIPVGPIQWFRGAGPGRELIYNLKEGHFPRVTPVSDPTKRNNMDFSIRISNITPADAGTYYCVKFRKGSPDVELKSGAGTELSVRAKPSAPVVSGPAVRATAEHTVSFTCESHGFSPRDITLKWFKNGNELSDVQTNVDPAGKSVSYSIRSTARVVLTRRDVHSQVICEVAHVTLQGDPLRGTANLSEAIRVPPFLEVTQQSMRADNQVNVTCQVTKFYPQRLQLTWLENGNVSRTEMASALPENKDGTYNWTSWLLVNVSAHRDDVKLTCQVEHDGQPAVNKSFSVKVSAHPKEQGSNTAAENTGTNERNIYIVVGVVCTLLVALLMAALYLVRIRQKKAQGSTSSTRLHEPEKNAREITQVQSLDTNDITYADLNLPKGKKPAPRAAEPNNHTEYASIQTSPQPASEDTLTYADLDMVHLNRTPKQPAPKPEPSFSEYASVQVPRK
The assay is described as follows: flow cytometry, CHO transfectants, anti-human IgG. The procedure, abridged: as §2
(Flow cytometry measures light scatter and fluorescence of single cells or particles in a stream.)

In assay [6] the target is T6, Cynomolgus Monkey SIRPγ (plate-coated extracellular domain).
T6 construct: also called Cyno SIRPγ
T6 extracellular domain: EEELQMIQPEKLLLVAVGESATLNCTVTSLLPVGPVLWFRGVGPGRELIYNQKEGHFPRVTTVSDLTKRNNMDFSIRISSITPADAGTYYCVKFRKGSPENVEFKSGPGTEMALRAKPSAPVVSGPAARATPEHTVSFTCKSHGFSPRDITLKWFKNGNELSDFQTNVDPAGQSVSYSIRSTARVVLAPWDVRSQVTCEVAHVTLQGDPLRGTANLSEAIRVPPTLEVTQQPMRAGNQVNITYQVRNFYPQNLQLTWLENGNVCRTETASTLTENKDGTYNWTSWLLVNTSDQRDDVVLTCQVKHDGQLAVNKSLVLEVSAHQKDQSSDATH
In words: ELISA, coated SIRP ECD (2 µg/mL), anti-human IgG, luminescence. The procedure, abridged:
(§3)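 Plate-coated SIRP extracellular domain (2 μg/mL), blocked, then exposed to purified antibodies in titration, after transient expression in Expi293F cells for 5 days and Protein A purification. Bound antibody is detected with anti-human IgG and a chemiluminescent substrate, and reported as relative luminescence units.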
(In general: ELISA stands for enzyme-linked immunosorbent assay.)

For assay [7], the target named is T7, extracellular binding domain of human SIRPγ (plate-coated) (human, UniProt Q9P1W8 29-360).
T7 construct: also called hSIRPγ
The assay is described as above. The procedure, abridged: as §3

Assay [8] has as its target T8, cynomolgus monkey SIRPγ on CHO cells (cynomolgus monkey, UniProt Q9P1W8 29-386 (human entry)).
T8 construct: also called Cyno SIRPγ CHO
T8 chain: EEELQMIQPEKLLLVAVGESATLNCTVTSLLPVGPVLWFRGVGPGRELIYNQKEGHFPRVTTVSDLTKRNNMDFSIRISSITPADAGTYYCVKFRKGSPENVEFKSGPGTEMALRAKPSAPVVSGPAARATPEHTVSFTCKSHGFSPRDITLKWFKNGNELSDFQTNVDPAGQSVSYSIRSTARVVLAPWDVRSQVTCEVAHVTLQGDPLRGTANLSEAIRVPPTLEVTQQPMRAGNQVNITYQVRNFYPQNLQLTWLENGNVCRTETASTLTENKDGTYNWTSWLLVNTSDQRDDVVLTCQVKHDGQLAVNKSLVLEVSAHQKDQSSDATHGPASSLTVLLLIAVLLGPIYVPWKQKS
In words: flow cytometry, CHO transfectants, anti-human IgG. Put shortly: as §2

Assay [9] has as its target T9, human SIRPγ on stably transfected CHO cells (human, UniProt Q9P1W8 29-387).
T9 construct: also called Human SIRPγ CHO
In words: flow cytometry, CHO transfectants, anti-human IgG. The procedure, abridged:
as §2

T2 sequence (Q9P1W8 29-360 limits assumed): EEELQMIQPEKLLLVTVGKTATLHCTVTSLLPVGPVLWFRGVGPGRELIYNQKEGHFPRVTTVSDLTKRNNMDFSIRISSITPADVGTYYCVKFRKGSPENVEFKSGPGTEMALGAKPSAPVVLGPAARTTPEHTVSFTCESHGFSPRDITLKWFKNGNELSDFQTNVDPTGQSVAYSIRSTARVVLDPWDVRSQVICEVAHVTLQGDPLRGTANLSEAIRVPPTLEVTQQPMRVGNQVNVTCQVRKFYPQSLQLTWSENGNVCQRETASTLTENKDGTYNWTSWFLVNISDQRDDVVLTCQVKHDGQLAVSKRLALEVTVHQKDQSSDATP
T3 sequence (Q9P1W8 29-360 limits assumed): as above
T7 sequence (Q9P1W8 29-360 limits assumed): as above
T9 sequence (Q9P1W8 29-387 limits assumed): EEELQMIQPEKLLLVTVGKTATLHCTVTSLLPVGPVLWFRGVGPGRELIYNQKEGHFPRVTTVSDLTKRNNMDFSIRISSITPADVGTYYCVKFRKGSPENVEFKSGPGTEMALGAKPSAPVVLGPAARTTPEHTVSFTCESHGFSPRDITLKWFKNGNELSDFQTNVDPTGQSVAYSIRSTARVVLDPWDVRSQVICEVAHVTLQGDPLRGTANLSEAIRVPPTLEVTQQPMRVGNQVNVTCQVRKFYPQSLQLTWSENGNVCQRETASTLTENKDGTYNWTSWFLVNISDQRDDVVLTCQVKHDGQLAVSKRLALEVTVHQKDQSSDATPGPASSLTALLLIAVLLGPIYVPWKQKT
T4 sequence (O00241 30-398): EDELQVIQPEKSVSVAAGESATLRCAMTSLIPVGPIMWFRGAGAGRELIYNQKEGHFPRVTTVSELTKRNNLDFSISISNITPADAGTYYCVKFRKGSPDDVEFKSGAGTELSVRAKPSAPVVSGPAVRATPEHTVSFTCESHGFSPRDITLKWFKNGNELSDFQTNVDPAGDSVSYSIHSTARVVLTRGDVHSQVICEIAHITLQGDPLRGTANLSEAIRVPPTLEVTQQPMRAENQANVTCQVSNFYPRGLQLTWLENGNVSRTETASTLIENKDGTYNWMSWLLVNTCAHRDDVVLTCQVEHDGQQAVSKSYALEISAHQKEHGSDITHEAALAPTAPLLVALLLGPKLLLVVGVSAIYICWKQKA

B1: Antibody 89 (antibody, V domains shown)
VH: QVQLVQSGAEVKKPGASVKVSCKASGGTFSSYAISWVRQAPGQGLEWMGIINPSSSSTGYAQKFQGRVTMTRDTSTSTVYMELSSLRSEDTAVYYCARAGYYDSSGYYYSPYYGMDVWGQGTTVTVSS
VL: EIVMTQSPATLSVSPGERATLSCRASQSISGSYLAWYQQKPGQAPRLLIYGASTRATGIPARFSGSGSGTEFTLTISSLQSEDFAVYYCQQYGSFPFTFGPGTKVDIK
What is called EC50 (read off the curve) is the concentration that produces a half-maximal response. Consider B1, for which the Kd in assay [1] was found to be 26.2 nM; in assay [2] it was 1320 nM; in [3], 297 nM. The binding result in [4] and in [5] was “no binding (tested: about 30 µg/mL)” each time. Also, the half-maximal effective concentration (EC50 (read off the curve)) in assay [6] was roughly 0.2 µg/mL; in [7], roughly 0.3 µg/mL.

B2: Antibody 86 (antibody, V domains shown)
VH: EVQLLESGGGLVQPGGSLRLSCAASGFTLGSYWMHWVRQAPGKGLEWVSLISWDGGSTYYADSVKGRFTISRDNSKNTLYLQMNSLRAEDTAVYYCAKGPWVGYSGYDLNYYYYGMDVWGQGTTVTVSS
VL: DIQMTQSPSSLSASVGDRVTITCRASQDIRRALAWYQQKPGKAPKLLIYAASSLQSGVPSRFSGSGSGTDFTLTISSLQPEDFATYYCLQHNSYPPTFGQGTKLEIK
As for B2, the Kd in [1] is 48.2 nM; in assay [2] it was 3.92 nM; in [3], 56.1 nM.

B3: Antibody 57 (antibody, V domains shown)
VH: QVQLVQSGAEVKKPGASVKVSCKASGYTFTSYYMHWVRQAPGQGLEWMGWINPNSGNAGFAQKFQGRVTMTRDTSTSTVYMELSSLRSEDTAVYYCARGPVYSYGPFDYWGQGTLVTVSS
VL: DIQMTQSPSSLSASVGDRVTITCRASQGISTYLAWYQQKPGKAPKLLIYAASTLQSGVPSRFSGSGSGTDFTLTISSLQPEDFATYYCQQSHSAPITFGQGTKVEIK
For the molecule B3, the “EC50 (read off the curve)” value in assay [8] is roughly 0.4 µg/mL; in assay [9], roughly 0.6 µg/mL. Besides, the binding result in [4] and in assay [5] was “no binding (tested: about 20 µg/mL)” in each case.

B4: Antibody 85 (antibody, V domains shown)
VH: QVQLVQSGAEVKKPGASVKVSCKASGYTFTSYDINWVRQAPGQGLEWMGWMNPNSGNTGYAQKFQGRVTMTRDTSTSTVYMELSSLRSEDTAVYYCARESYAYCSSTSCYDAFDIWGQGTMVTVSS
VL: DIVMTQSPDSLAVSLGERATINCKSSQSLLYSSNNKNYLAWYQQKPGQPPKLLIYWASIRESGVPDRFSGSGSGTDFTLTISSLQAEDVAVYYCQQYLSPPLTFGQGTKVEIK
In the case of B4, the Kd came out at 96.1 nM in assay [1], 35.6 nM in assay [2] and 96.9 nM in assay [3]. Moreover, the binding result in [4] and in assay [5] was “no binding (tested: about 30 µg/mL)” throughout.

B5: Antibody 92 (antibody, V domains shown)
VH: QVQLVQSGAEVKKPGASVKVSCKASGGTFSSYDINWVRQAPGQGLEWMGWMNPNSGNTGYAQKFQGRVTMTRDTSTSTVYMELSSLRSEDTAVYYCARDLTLYCSSTSCLDAFDYWGQGTLVTVSS
VL: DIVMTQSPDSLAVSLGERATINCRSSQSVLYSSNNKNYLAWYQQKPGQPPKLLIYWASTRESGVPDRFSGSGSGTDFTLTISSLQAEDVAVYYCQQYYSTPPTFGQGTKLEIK
B5: the Kd stood at 2960 nM in assay [1], 9.03 nM in assay [2] and 12.3 nM in assay [3]. Moreover, the binding result in assay [4] and in assay [5] was “no binding (tested: about 30 µg/mL)” each time.

B6: Antibody 82 (antibody, V domains shown)
VH: QVQLVQSGAEVKKPGASVKVSCKASGHTFNNNYIHWVRQAPGQGLEWMGIINPSGGSTSYAQKFQGRVTMTRDTSTSTVYMELSSLRSEDTAVYYCARQIQDYGYYYYGMDVWGQGTTVTVSS
VL: EIVMTQSPATLSVSPGERATLSCRASQSVSKYLAWYQQKPGQAPRLLIYAISARAAGIPARFSGSGSGTEFTLTISSLQSEDFAVYYCQQYYSSPPTFGQGTKVEIK
Consider B6, for which the “EC50 (read off the curve)” value in assay [8] is roughly 0.7 µg/mL; in [6], roughly 0.03 µg/mL; in assay [7] it was roughly 0.01 µg/mL. For the same molecule, the binding result in assay [4] and in assay [5] was “no binding (tested: about 20 µg/mL)” each time.

B7: Antibody 79 (antibody, V domains shown)
VH: QVQLVQSGAEVKKPGASVKVSCKASGYTFTSYYMHWVRQAPGQGLEWMGWMNPNSGNTGYAQKFQGRVTMTRDTSTSTVYMELSSLRSEDTAVYYCARDQMYSSYGMDVWGQGTTVTVSS
VL: DIQMTQSPSSLSASVGDRVTITCRASESITNWLAWYQQKPGKAPKLLIYKASSLESGVPSRFSGSGSGTDFTLTISSLQPEDFATYYCQQSYGTPYTFGQGTKVEIK
Take B7: the “EC50 (read off the curve)” value in [8] is roughly 0.5 µg/mL; in assay [6] it was roughly 0.06 µg/mL; in assay [7], roughly 0.03 µg/mL. In addition, the binding result in [4] and in assay [5] was “no binding (tested: about 20 µg/mL)” throughout.

B8: Antibody 69 (antibody, V domains shown)
VH: QVQLVQSGAEVKKPGASVKVSCKASGYTFTSYYMHWVRQAPGQGLEWMGWMNPNSDNTGYAQKFQGRVTMTRDTSTSTVYMELSSLRSEDTAVYYCARVGVGYGYYYYGMDVWGQGTTVTVSS
VL: DIQMTQSPSSLSASVGDRVTITCRAGQSIGDYLNWYQQKPGKAPKLLIYAASSLQSGVPSRFSGSGSGTDFTLTISSLQPEDFATYYCQQSYSTPWTFGQGTKVEIK
Turning to B8, the results for the “EC50 (read off the curve)” value in assay [8] and in assay [9] were roughly 0.6 µg/mL and roughly 0.5 µg/mL, respectively. The binding result in assay [4] and in assay [5] was “no binding (tested: about 20 µg/mL)” throughout.

B9: Antibody 80 (antibody, V domains shown)
VH: QVQLVQSGAEVKKPGASVKVSCKASGYTFTRYDINWVRQAPGQGLEWMGWMNPNSGNTGYAQKLQGRVTMTRDTSTSTVYMELSSLRSEDTAVYYCARERVGYCSSTSCLHPLDYWGQGTLVTVSS
VL: DIQMTQSPSSLSASVGDRVTITCRASQGIRNDLGWYQQKPGKAPKLLIYSASNLQSGVPSRFSGSGSGTDFTLTISSLQPEDFATYYCQQSYDVPLTFGGGTKVEIK
As to B9, the “EC50 (read off the curve)” value in [8] is roughly 0.7 µg/mL; in [9], roughly 0.2 µg/mL; in assay [6], roughly 0.05 µg/mL; in [7], roughly 0.02 µg/mL. In addition, the binding result in [4] and in [5] was “no binding (tested: about 20 µg/mL)” in each case.

For the origin of these results see patent publication US20240400677A1 (ELECTRA THERAPEUTICS, published 2024).
